From patent US20230058779A1, “COMBINATION CANCER TREATMENT USING A PD-1 ANTAGONIST, AN ILT4 ANTAGONIST, AND LENVATINIB OR SALTS THEREOF” (Merck Sharp & Dohme LLC, priority 2020, published 2023)

Tested on: participants with advanced solid tumors
Experiment: Phase 1 open label, multi-arm, multi-center study of MK-4830 as monotherapy or in combination with pembrolizumab (NCT03564691)
Type: in vivo, human
Settings: 1600 mg dose level, MK-4830 monotherapy cohort

In the case of “MK-4830: anti-ILT4 antibody; light chain SEQ ID NO:5, heavy chain SEQ ID NO:10”, the “transient Grade 3 blood pressure increase” value is reported as “one episode”.
